# Literature values in publication PMC3750086.
# Assays:
# [1] = target: CD28 (Homo sapiens) (UniProt P10747)
# [2] = target: PDL1 (Homo sapiens) (UniProt Q9NZQ7)
# Sequence of UniProt Q9NZQ7 (Q9NZQ7 19-238): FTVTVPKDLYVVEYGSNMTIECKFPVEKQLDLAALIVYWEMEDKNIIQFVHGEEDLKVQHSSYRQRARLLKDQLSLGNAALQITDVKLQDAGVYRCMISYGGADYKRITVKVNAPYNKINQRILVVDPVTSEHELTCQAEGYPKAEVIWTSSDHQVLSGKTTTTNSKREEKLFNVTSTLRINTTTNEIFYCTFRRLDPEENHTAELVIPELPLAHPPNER
substance,measurement,setting,value
CD80 (from UniProt P33681),Kd,[1],4000 nM
same,Kd,[2],1400 nM
